Results: patent publication US20110124556 (published 2011)
Non-standard residues stand in square brackets, D forms with d. No end group written: not given here. Tic = O=C(O)[C@@H]1Cc2ccccc2CN1; Ac6c = NC1(C(=O)O)CCCCC1; βturn = not defined here

B1: S453 (peptide)
chain: GSLDESFYDWFERQLGKKKXXKEWLDQEWAWVQCEVYGRGCPSEE
modifications: not fully specified (residues 19, 20, 21); printed as GSLDESFYDWFERQLGKKK-Ald-17-Ald-KEWLDQEWAWVQCEVYGRGCPSEE; cysteine pairing not given here; also: two peptides (1-19 and 22-45) joined by linker 17 between the Ald group on K19 and an N-terminal Ald on the second peptide
B2: S229 (peptide)
chain 1: SDGFYNAIELLSX
chain 2: KHLCVLEELFWGASLFGYCSGKKX
modifications: not fully specified; listing feature
B3: S580 (peptide)
chain 1: SLEEEWAQVECEVYGRGC-βturn
chain 2: ESFYDWFERQLG
modifications: not fully specified (bridges); printed as SLEEEWAQVECEVYGRGC-βturn-ESFYDWFERQLG; ends and bridges not checked; also: chain 1 continues via βturn into chain 2 (C-N fusion)
B4: S438 (peptide)
chain 1: ESFYDWFERQLGGGGK
chain 2: DQEWAWVQCEVYGRGCPS
B5: S379 (peptide)
chain 1: GSLDESFYDWFERQLGKKKX
chain 2: GSLDESFYDWFERQLGKKKX
modifications: not fully specified; listing feature
B6: S456 (peptide)
chain 1: GSLDESFYDWFERQLGKK
chain 2: XKEWLDQEWAWVQCEVYGRGCPSEE
modifications: not fully specified; listing feature
B7: S443 (peptide)
chain 1: ESFYDWFERQLGGGGK
chain 2: WVQCEVYGRGCPS
B8: S301 (peptide)
chain 1: XDWLQRNANFYDWFVAEL
chain 2: XDWLQRNANFYDWFVAEL
modifications: listing feature
B9: S360 (peptide)
chain 1: XDWLQRNANFYDWFVAEL
chain 2: XDWLQRNANFYDWFVAEL
modifications: listing feature
B10: S442 (peptide)
chain 1: ESFYDWFERQLGGGGK
chain 2: AWVQCEVYGRGCPS
B11: S231 (peptide)
chain 1: FHENFYDWFVRQVSKKGGGX
chain 2: FHENFYDWFVRQVSKKGGGX
modifications: listing feature
B12: S527 (peptide)
chain 1: H[Ac6c]CAQE[dW]GSEL
chain 2: [Tic]QCSGSESFYDWFERQL
modifications: not fully specified; printed as H-Acy-CAQEwGSEL-Tic-QCSGSESFYDWFERQL; ends and bridges not checked
B13: S218 (peptide)
chain 1: AFYDWFAKKX
chain 2: AFYDWFAKKX
modifications: listing feature
B14: S439 (peptide)
chain 1: ESFYDWFERQLGGGGK
chain 2: QEWAWVQCEVYGRGCPS
B15: S246 (peptide)
chain 1: ACAWPTYWNCGGGGX
chain 2: FHENFYDWFVRQVSKKX
modifications: not fully specified; listing feature

These binders were tested against human insulin receptor (HIR) (human, UniProt P06213) (assay: competition).

Kd [nM] | Binder
0.57 | B1
0.73 | SLEEEWAQIEEVWGRPSESFYDWFERQLG [S570]
0.0092 | SLEEEWAQIEAEVWGRGAPSESFYDWFERQLG [S574]
4.4 | B2
38 | FYDWFERQLG [S392]
> 20000 | WLEQERAWIWCEIQGSGCRA [S263 (D8B12)]
1.8 | SLEEEWAQIEEVWGRGSESFYDWFERQLG [S571]
0.014 | SLEEEWAQIECEVWGRGCPSGSLDESFYDWFERQL [S560]
0.075 | SLEEEWAQVECEVYGRGCPSFYDWFERQL [S531]
0.044 | SLEHEWAQVECEVYGRGCPSGSLDESFYDWFERQLG [S537]
0.012 | B3
24000 | SDGFYNAIELLS [S118]
0.0078 | SLEEEWAQVECEVWGRGCPSGSLDESFYDWFERQLG [S541]
> 2000 | AFYDWFAKK [S167]
590 | AHENFYDWFVRQVSKK [S113]
4.1 | SLEEEWAQVECEVWGRGCPS [S548]
0.01 | SLEEEWAWVQCEVYGRGCPSESFYDWFERQL [S534]
0.02 | SLEEEWAQIECEVYGRGCPSESFYDWFERQL (not fully specified (N-terminus); ends and bridges not checked) [S557]
31 | NSFYEALRMLSSK [S121]
27000 | EHWNTVDPFYFTLFEWLRESG [S177]

Kd [nM] | Binder
30 | B4
56 | B5
2.4 | B6
0.045 | SLEEEWAQIQHELYGPAESESFYDWFERQL [S596]
170 | B7
1000 | FHENFYDWFVRAVSKK [S107]
0.013 | SLEEEWAQVECEVYGRGCSGSLDESFYDWFERQLG [S549]
68 | WFYDWFWE [S315]
640 | B8
0.15 | SLEEEWAQIEEVWGRGPSESFYDWFERQLG [S569]
2000 | NFYDWFVAELG [S243]
2.2 | SIEEEWAQIKCDVWGRGCPSY [S593]
7700 | EGWDFYSYFSGLLASVT [S259]
0.027 | SLEEEWAQVECEVYGRGCPSGSLDESFYHWFERQLG [S542]
0.013 | SLEEEWAQIQCEVWGRCSESFYDWFERQL [S564]
0.011 | HHHHHHKSLEEEWAQVECEVYGRGCPSGSLDESFYDWFERQLG [S524]
0.098 | SLELEWAQVECEVYGRGCPSGSLDESFYDWFERQLG [S539 (printed S519)]
0.62 | LEEEWAQIQREVWHSPASESFYDWFERQL [S595]
990 | B9
160 | B10

Kd [nM] | Binder
0.0085 | Ac-SLEEEWAQIECEVYGRGCPSESFYDWFERQL (ends and bridges not checked) [S597]
15 | FHENFYDWFVRQVSKKXXSDGFYNAIELLS (not fully specified; listing feature) [S273]
> 2000 | FHENFADWFVRQVSKK [S220]
0.018 | SIEEEWAQIKCDVWGRCSESFYDWFERQL [S562]
0.008 | SLEEEWAQVECEVYGRGCPSESFYDWFERQL [S530]
270 | B11
590 | GIISQSCPESFYDWFAGQVSDPWWCW [S326 (G33)]
> 20000 | RGTRSDPFYHKLSELLQGH [S368]
93 | HPTSKEIYAKLLK [S122]
2.4 | B12
11000 | B13
46 | B14
40 | GSLDESFYDWFERQLGXK (listing feature) [S550]
0.0064 | SLEEEWAQIECEVYGRGCPSESFYDWFERQLG [S554]
56000 | GRVDWLQRNANFYDWFV [S251]
0.038 | SLEQEWAQVECEVYGRGCPSGSLDESFYDWFERQLG [S538]
0.062 | SLEEEWAQVECEVYGRGCPSGGSGGSGLLDESFYHWFDRQLR [S510]
0.013 | SLEEEWAQVKCEVYGRGCPSGSLDESFYDWFERQLG [S540]
50 | B15
